This is an account of results in patent US5968514.

Values joined by “and” are separate entries in the source; they are usually repeats but may differ in a detail not shown here. Equal values may be shown once.

Test [1] concerns the target human class II MHC molecules on Raji cells. Description: competition with ^125 I-HIV-1 Nef(123-160) on Raji cells.
For test [2], the target named is class II MHC antigens on antigen-presenting cells of human peripheral mononuclear cells.
In test [3] the target is human class II MHC molecules on Raji cells.
The target of test [4] is HLA-DR on Raji cells (human). Description: antibody blocking of labelled peptide binding to Raji cells.
Test [5] addresses class II MHC antigens on antigen-presenting cells of human peripheral mononuclear cells. The source holds these as a separate data set.
For test [6] the target is unchanged. The source holds these as a separate data set.
The target of test [7] is murine class II MHC molecules on A20 cells (I-A^d and I-E^d).
Test [8] shares this target. Description: competition with ^125 I-MMTV ORF(76-119) on A20 cells.
For test [9], the target named is human class II MHC molecules on Raji cells. Description: competition with ^125 I-SEA on Raji cells.
Test [10] has the same target. The source holds these as a separate data set.
For test [11], the target named is DR1 on DR1-transfected L cells (Homo sapiens (Human)) (UniProt P01903).
Test [12] deals with murine class II MHC molecules on A20 cells (I-A^d and I-E^d). Description: dose-response competition with ^125 I-SEA on A20 cells.

In test [1], HIV-1 Nef(123-160) (peptide) had an IC50 of 30000 nM. In test [2], this substance came in with a stimulation index (SI) of human PMNC proliferation induced by Nef of 3.9 SI and a stimulation index (SI) of human PMNC proliferation induced by SEA of 6.2 SI. For the same substance, the percent reduction of ^125 I-SEA binding in [3] is 20% and 40%.

“Clone L243, a monoclonal antibody specific for HLA-DR” showed a percent reduction of ^125 I-HIV-1 Nef(123-160) binding in test [4] of 35%.

In the case of HIV-1 Nef(156-186) (peptide), in test [2], the stimulation index (SI) of human PMNC proliferation induced by Nef came to 19.6 SI and the stimulation index (SI) of human PMNC proliferation induced by SEA is 16.6 SI.

SEE (from UniProt P12993) (ligand): the IC50 in [1] stood at 2000 nM.

Consider “HIV-1 Nef protein (from UniProt P03406) (ligand)”, for which the stimulation index (SI) of proliferation of whole human PMNC in [5] was 26.4 SI. In test [6], this substance displayed an IFNγ (U/ml) in supernatants of whole PMNC, 96 h of 1500 U/ml.

Turning to “staphylococcal enterotoxin A (from UniProt P0A0L2) (ligand)”, the CPM bound in the absence of competitors in test [7] was found to be 6380 CPM; in test [10], 31500 CPM; in test [11], 5710 CPM. In [5], this substance gave a stimulation index (SI) of proliferation of whole human PMNC of 164 SI. Also, the IC50 worked out at 1800 nM in [8] and 200 nM in [9]. The substance also registered an IFNγ (U/ml) in supernatants of whole PMNC, 72 h in [6] of 3000 U/ml. The substance further had a fold more effective a competitor than MMTV ORF(76-119) in [12] of 20 times.

One may read the IC50 as the concentration that gives 50% inhibition. Higher therefore signals lower potency.
